According to patent US20040258705A1, “Use of lectins to promote oligomerization of glycoproteins and antigenic molecules” (Antigenics Inc., priority 2003, published 2004):

Legend:
[1] = system: Meth A-specific CD4+ T cell clone 24D3 with irradiated BALB/c splenocytes; test: Meth A in vitro antigen representation assay; assay type: cell-based, mouse (BALB/c); details: Meth A gp96; versus matched preparation without buffer exchange; IL-5 ELISA
Excerpt: Materials: irradiated BALB/c splenocytes were used as the Antigen Presenting Cells (APCs). The Meth A-specific CD4^+ T cell clone, 24D3, was used. They are restricted by the MHClI molecule I-Ed, and are specific for the antigenic peptide contained within the sequence […]. The medium used for this assay was RPMI 1640 (Gibco-BRL). […] The wild-type form of the L 1 peptide ([…]) was used as a negative control, and the mutated form of the L11 peptide ([…]) was used as the positive control.
The resulting supernatant was further purified using Con A and DEAE chromatography.
Re-Presentation Assay: 2×104 of Meth A specific CD4^+ T cell clones (24D3) were incubated with 5×105 of irradiated BALB/c splenic APCs in the presence of various concentration of gp96 derived from Meth A or other sources (100, 50, 25, 12.5, 6.25 μg/ml final concentration) for 48-72 hrs in the 96 well flat bottom plate in 200 μl of final volume. Wild type ribosomal protein L11 peptide and mutated ribosomal protein L11 peptide were added in replicate wells and used as a negative control or positive control respectively. After 48-72 hours of incubation at 37° C., 5% CO2, 100 μl of supernatant was taken and IL-5 production was measured by ELISA.

[2] = system: Meth A cells; test: In vivo Meth A tumor inhibition (tumor protection / rejection) assay; design: species or system BALB/c mice; details: Meth A gp96, dose of 10 μg intradermally day 0 and 7; versus matched preparation without buffer exchange
Experimental: (§1) In vivo Meth A growth inhibition assay: BALB/c mice (n=30/group) were immunized on day 0 and day 7 with 10 or 50 μg of gp96 intradermally in the flank. On study day 14, mice were challenged with 1×10^5 Meth A cells intradermally in a total volume of 100 μl. Growing tumors were monitored during the subsequent four weeks. All animals were euthanized on study day 41 after a final tumor measurement. Data was reported as percentage of animals that are tumor-free on study day 41. Control groups included un-immunized (diluent—negative control) and immunized with irradiated Meth A cells (positive control).
as §1, with “(n=10/group)” for “(n=30/group)”, “10” for “10 or 50”, “gl.” for “μl.”
as §1, with “(n=10/group)” for “(n=30/group)”, “10” for “10 or 50”
as §1, with “mice (n=10/group)” for “mice (n=30/group)”, “with 0.3” for “with 10”, “or 3” for “or 50”, “gp96 alone or in combination with Con A” for “gp96”

B1: Meth A gp96 (Bx): Meth A gp96 prepared with buffer exchange step between Con A and DEAE columns, increased Con A content (protein, UniProt P08113 22-802, looked up)
Endoplasmin: DDEVDVDGTVEEDLGKSREGSRTDDEVVQREEEAIQLDGLNASQIRELREKSEKFAFQAEVNRMMKLIINSLYKNKEIFLRELISNASDALDKIRLISLTDENALAGNEELTVKIKCDKEKNLLHVTDTGVGMTREELVKNLGTIAKSGTSEFLNKMTEAQEDGQSTSELIGQFGVGFYSAFLVADKVIVTSKHNNDTQHIWESDSNEFSVIADPRGNTLGRGTTITLVLKEEASDYLELDTIKNLVRKYSQFINFPIYVWSSKTETVEEPLEEDEAAKEEKEESDDEAAVEEEEEEKKPKTKKVEKTVWDWELMNDIKPIWQRPSKEVEEDEYKAFYKSFSKESDDPMAYIHFTAEGEVTFKSILFVPTSAPRGLFDEYGSKKSDYIKLYVRRVFITDDFHDMMPKYLNFVKGVVDSDDLPLNVSRETLQQHKLLKVIRKKLVRKTLDMIKKIADEKYNDTFWKEFGTNIKLGVIEDHSNRTRLAKLLRFQSSHHSTDITSLDQYVERMKEKQDKIYFMAGSSRKEAESSPFVERLLKKGYEVIYLTEPVDEYCIQALPEFDGKRFQNVAKEGVKFDESEKTKESREATEKEFEPLLNWMKDKALKDKIEKAVVSQRLTESPCALVASQYGWSGNMERIMKAQAYQTGKDISTNYYASQKKTFEINPRHPLIRDMLRRIKEDEDDKTVMDLAVVLFETATLRSGYLLPDTKAYGDRIERMLRLSLNIDPEAQVEEEPEEEPEDTSEDAEDSEQDEGEEMDAGTEEEEEETEKESTEKDEL
modifications: tumor-derived; contains Con A
notes: Meth A gp96 prepared with buffer exchange step between Con A and DEAE columns, increased Con A content
[1]
  in vitro activity in the Meth A representation assay: higher in vitro antigen representation
[2]
  in vivo tumor protection activity: higher in vivo tumor protection activity
